Assay results from article PMC5389548.

Molecular target: thrombin (human, UniProt P00734;P00734 328-363;364-622)
Assay: microarray sandwich fluorescence

Q: GGTTGGTGTGGTTGG (structured_DNA, 2'F-ANA, positions lost in text) [sequence 4] was tested. Which Kd did it give?
A: 41 ± 3.7 nM

Q: For GGTTGGTGTGGTTGG (structured_DNA, 2'F-araT, positions lost in text) [sequence 15], which Kd is on record?
A: 85 ± 21 nM

Q: GGTTGGTGTGGTTGG (structured_DNA, ten 2'F-ANA, positions lost in text) [sequence 11] was tested. Which Kd did it give?
A: 53 ± 16 nM

Q: With GGTTGGTGTGGTTGG (structured_DNA) [TBA1 control] as the binder, how does the Kd read?
A: 93 ± 23 nM

Q: How did the Kd turn out when GGTTGGTGTGGTTGG (structured_DNA, 2'F-ANA, positions lost in text) [sequence 3] was run?
A: 39 ± 10 nM

Q: GGTTGGTGTGGTTGG (structured_DNA, 2'F-ANA at T3, G8, T12; full pattern lost in text) [sequence 1] was tested. Which Kd did it give?
A: 28 ± 1.6 nM

Q: How did the Kd turn out when GGTTGGTGTGGTTGG (structured_DNA, ten 2'F-ANA, positions lost in text) [sequence 10] was run?
A: 45 ± 14 nM

Q: How did the Kd turn out when GGTTGGTGTGGTTGG (structured_DNA, 2'F-araT, positions lost in text) [sequence 16] was run?
A: 117 ± 44 nM

Q: With GGTTGGTGTGGTTGG (structured_DNA, eight 2'F-ANA, positions lost in text) [sequence 6] as the binder, how does the Kd read?
A: 29 ± 2.7 nM

Q: With GGTTGGTGTGGTTGG (structured_DNA, 2'F-ANA at T3, G8, T12; full pattern lost in text) [sequence 2] as the binder, how does the Kd read?
A: 28 ± 1.2 nM
